From US20040002124A1 (MUNIN, published 2004)
Where no end group is shown, it is not given here.

Molecular target: T1, αVβ3 integrin purified from HUVE cell lysates (human, UniProt P06756 31-1048; P05106 27-788)
T1 construct: mature; Detergent-solubilised native heterodimer, coated on plates; also called vitronectin receptor; immobilized integrin
Assay: affinity chromatography of HUVE cell lysate on RGDSPK Sepharose
Experimental: αVβ₃ integrin purification from HUVE cell lysates was done as described in Pytela et al., Meth. Enzynmol., 144:475-489 (1987). Briefly, 10⁸ cells were lysed in 1 ml of PBS containing 1 mM CaCl₂, 1 mM MgCl₂, 0.5 mM PMSF and 100 mM octylglucoside. […] The purity of the integrin was determined by SDS-PAGE under non-reducing conditions, followed by silver staining.

T1 sequence (P06756 31-1048, chain 1 of 2): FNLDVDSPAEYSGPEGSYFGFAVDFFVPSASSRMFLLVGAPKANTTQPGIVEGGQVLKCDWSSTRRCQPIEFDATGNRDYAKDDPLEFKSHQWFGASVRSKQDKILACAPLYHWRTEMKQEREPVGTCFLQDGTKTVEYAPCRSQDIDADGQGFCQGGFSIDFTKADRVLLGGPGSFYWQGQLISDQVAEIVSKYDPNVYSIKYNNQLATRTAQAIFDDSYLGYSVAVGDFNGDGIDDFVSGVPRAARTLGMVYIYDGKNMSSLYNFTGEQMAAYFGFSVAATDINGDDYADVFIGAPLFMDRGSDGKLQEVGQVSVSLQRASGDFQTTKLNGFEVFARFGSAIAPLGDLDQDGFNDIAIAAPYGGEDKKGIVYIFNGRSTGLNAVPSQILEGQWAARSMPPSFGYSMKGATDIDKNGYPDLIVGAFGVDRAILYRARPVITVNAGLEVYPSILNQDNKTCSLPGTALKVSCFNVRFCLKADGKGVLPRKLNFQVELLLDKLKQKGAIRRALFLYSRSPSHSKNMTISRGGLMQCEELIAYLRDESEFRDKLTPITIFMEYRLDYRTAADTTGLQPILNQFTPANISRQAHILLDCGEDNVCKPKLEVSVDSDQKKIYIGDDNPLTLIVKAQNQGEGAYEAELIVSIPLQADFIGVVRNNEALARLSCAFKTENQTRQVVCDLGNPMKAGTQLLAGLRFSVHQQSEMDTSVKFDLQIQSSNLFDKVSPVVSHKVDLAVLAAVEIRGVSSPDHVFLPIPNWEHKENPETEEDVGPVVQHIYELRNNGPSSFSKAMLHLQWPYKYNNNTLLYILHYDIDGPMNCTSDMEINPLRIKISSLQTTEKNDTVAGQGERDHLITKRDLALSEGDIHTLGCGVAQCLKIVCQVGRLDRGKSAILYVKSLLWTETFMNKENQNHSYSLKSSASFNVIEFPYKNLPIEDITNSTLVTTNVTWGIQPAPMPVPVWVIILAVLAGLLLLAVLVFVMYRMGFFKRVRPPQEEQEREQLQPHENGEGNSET
T1 sequence (P05106 27-788, chain 2 of 2): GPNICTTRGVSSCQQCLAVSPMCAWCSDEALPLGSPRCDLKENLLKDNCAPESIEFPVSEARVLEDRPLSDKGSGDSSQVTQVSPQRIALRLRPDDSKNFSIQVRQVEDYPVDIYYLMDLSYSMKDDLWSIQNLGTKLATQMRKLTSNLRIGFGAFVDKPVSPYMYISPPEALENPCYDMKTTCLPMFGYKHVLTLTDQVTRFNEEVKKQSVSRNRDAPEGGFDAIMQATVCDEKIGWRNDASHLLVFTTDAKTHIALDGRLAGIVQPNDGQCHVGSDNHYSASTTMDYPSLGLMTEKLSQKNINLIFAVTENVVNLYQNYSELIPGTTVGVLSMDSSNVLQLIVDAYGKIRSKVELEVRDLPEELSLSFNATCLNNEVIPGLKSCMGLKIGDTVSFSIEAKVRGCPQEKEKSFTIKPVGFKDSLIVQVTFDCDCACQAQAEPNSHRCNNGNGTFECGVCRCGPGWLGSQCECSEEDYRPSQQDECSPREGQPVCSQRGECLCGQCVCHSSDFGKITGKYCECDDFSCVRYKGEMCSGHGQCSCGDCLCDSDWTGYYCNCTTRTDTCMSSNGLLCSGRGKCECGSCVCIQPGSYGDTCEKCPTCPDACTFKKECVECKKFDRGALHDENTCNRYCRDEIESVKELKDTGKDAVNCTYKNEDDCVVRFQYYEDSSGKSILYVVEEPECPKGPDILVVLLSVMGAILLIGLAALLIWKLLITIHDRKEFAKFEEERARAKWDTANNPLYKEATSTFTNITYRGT

binding result: binds
Binder: RGDSPK (also: coupled to cyanogen bromide activated Sepharose CL 4B, also called RGDSPK peptide) [RGDSPK Sepharose]
